Patent US20250262210A1 (TRUSTEES OF COLUMBIA UNIVERSITY IN THE CITY OF NEW YORK, published 2025)

Tests used:
Test in all cases: IP/MS, LZTR1 wild type-FLAG, U87
[1] = target: T1, SREBF2 (human, UniProt Q12772 1-1141, limits assumed)
T1 sequence (looked up): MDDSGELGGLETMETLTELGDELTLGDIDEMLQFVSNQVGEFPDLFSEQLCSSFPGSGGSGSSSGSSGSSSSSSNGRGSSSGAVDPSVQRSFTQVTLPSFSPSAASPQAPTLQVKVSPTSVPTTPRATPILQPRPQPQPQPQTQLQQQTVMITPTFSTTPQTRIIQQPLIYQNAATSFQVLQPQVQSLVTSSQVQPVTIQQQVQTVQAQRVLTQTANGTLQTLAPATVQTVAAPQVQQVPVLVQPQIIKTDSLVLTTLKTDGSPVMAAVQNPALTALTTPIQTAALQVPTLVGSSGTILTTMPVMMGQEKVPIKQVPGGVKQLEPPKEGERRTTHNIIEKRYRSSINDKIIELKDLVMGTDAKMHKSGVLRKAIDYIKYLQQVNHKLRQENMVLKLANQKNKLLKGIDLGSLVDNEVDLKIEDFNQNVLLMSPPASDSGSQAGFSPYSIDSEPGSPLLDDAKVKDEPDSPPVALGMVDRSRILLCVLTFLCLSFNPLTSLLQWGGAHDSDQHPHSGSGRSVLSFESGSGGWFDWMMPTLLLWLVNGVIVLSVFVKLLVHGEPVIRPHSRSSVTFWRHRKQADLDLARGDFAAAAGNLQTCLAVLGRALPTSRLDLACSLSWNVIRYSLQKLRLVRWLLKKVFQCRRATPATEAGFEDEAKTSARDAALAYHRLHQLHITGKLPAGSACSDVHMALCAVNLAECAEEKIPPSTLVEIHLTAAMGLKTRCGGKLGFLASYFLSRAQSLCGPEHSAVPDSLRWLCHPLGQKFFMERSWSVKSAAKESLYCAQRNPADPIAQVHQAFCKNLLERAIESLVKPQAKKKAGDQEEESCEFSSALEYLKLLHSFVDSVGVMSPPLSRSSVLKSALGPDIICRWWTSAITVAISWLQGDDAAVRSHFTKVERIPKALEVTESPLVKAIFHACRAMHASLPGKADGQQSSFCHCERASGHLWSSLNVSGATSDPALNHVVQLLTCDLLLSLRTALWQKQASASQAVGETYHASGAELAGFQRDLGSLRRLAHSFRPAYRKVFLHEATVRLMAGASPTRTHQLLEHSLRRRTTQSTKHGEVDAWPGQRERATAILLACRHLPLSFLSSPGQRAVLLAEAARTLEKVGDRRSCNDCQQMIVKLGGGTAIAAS
In short: (§1)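 Extracted peptides in 3% acetonitrile/0.1% formic acid ran on a 50 cm C18 column into an Orbitrap Fusion, with MaxQuant identification and spectral counting.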

[2] = target: T2, TRAPPC11 (human, UniProt Q7Z392 1-1133, limits assumed)
T2 sequence (looked up): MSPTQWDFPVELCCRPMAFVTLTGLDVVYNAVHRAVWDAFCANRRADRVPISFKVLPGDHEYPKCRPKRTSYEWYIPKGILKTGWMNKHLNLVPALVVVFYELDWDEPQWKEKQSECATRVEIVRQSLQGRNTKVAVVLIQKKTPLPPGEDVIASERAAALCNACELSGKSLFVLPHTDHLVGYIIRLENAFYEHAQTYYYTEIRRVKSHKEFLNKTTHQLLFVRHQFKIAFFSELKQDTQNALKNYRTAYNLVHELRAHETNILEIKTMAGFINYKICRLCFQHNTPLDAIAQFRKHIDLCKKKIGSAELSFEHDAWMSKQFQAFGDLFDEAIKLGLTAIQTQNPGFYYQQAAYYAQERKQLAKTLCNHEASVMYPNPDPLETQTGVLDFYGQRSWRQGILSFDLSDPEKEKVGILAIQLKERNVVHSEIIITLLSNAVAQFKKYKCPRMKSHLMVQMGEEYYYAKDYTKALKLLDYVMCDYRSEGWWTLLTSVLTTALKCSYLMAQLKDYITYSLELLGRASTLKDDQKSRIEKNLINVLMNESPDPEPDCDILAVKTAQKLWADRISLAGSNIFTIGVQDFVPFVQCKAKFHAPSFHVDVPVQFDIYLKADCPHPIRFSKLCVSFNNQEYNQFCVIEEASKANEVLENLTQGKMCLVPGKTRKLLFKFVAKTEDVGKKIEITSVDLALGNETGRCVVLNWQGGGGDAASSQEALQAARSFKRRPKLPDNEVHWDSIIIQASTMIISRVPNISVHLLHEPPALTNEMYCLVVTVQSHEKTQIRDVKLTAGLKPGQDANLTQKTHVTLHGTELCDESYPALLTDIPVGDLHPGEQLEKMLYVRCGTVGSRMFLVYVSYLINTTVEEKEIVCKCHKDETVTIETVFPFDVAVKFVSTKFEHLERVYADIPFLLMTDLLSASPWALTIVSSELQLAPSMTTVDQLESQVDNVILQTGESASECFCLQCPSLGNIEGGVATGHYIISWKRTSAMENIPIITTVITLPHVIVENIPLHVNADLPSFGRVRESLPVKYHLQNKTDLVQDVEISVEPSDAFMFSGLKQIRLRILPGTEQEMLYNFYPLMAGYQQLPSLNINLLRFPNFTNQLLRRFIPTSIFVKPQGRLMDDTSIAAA
In short: as §1

[3] = target: DIP2B (human, UniProt Q9P265 1-1576)
Chain of DIP2B (Q9P265 whole entry): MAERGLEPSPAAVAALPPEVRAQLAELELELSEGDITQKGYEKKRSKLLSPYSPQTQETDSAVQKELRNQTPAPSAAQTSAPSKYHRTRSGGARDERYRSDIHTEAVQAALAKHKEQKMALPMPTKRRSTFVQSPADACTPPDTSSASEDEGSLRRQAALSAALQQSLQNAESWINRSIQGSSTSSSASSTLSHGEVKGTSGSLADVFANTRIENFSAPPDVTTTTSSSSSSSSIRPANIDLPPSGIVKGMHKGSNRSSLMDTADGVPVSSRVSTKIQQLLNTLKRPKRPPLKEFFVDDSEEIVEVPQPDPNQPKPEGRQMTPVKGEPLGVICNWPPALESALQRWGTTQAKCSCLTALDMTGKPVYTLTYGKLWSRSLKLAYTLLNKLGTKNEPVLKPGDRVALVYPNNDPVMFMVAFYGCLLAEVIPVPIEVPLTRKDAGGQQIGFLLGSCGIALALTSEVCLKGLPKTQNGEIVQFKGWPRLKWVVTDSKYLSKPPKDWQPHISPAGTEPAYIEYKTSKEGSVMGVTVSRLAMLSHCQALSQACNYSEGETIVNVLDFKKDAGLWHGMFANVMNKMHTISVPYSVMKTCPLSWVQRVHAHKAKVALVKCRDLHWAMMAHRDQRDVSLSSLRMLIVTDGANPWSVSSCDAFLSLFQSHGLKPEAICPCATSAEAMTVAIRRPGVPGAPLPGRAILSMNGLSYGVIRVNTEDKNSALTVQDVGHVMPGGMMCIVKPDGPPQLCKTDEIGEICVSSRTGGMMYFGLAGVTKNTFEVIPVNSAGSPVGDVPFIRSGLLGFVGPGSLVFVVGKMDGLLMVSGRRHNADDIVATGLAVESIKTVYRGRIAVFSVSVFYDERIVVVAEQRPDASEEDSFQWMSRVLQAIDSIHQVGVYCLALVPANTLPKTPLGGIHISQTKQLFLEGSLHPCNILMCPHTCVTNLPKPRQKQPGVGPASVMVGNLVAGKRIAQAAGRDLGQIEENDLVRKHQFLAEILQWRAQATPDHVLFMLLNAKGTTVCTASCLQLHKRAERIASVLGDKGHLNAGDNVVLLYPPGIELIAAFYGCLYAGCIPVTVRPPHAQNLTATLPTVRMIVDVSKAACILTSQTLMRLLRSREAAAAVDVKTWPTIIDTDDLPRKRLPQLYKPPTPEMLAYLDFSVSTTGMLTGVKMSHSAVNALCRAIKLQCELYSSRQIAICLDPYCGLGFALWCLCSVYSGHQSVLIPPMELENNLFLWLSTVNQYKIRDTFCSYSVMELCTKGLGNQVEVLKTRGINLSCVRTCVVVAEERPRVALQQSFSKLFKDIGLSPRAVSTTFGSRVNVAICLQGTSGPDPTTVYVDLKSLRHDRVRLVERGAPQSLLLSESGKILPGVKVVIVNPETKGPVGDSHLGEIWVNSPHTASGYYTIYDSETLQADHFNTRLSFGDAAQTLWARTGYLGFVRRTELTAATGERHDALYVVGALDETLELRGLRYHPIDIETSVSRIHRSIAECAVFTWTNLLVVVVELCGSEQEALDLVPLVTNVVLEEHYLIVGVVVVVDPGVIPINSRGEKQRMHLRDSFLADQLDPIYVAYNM
In short: as §1

Measured: binding result

B1: LZTR1-FLAG (other, human, UniProt Q8N653 1-840, looked up)
chain: MAGPGSTGGQIGAAALAGGARSKVAPSVDFDHSCSDSVEYLTLNFGPFETVHRWRRLPPCDEFVGARRSKHTVVAYKDAIYVFGGDNGKTMLNDLLRFDVKDCSWCRAFTTGTPPAPRYHHSAVVYGSSMFVFGGYTGDIYSNSNLKNKNDLFEYKFATGQWTEWKIEGRLPVARSAHGATVYSDKLWIFAGYDGNARLNDMWTIGLQDRELTCWEEVAQSGEIPPSCCNFPVAVCRDKMFVFSGQSGAKITNNLFQFEFKDKTWTRIPTEHLLRGSPPPPQRRYGHTMVAFDRHLYVFGGAADNTLPNELHCYDVDFQTWEVVQPSSDSEVGGAEVPERACASEEVPTLTYEERVGFKKSRDVFGLDFGTTSAKQPTQPASELPSGRLFHAAAVISDAMYIFGGTVDNNIRSGEMYRFQFSCYPKCTLHEDYGRLWESRQFCDVEFVLGEKEECVQGHVAIVTARSRWLRRKITQARERLAQKLEQEAAPVPREAPGVAAGGARPPLLHVAIREAEARPFEVLMQFLYTDKIKYPRKGHVEDVLLIMDVYKLALSFQLCRLEQLCRQYIEASVDLQNVLVVCESAARLQLSQLKEHCLNFVVKESHFNQVIMMKEFERLSSPLIVEIVRRKQQPPPRTPLDQPVDIGTSLIQDMKAYLEGAGAEFCDITLLLDGHPRPAHKAILAARSSYFEAMFRSFMPEDGQVNISIGEMVPSRQAFESMLRYIYYGEVNMPPEDSLYLFAAPYYYGFYNNRLQAYCKQNLEMNVTVQNVLQILEAADKTQALDMKRHCLHIIVHQFTKVSKLPTLRSLSQQLLLDIIDSLASHISDKQCAELGADI
notes: Expressed in HEK 293T, HeLa or U87 cells; used as cell lysate; also called LZTR1 wild type-FLAG; LZTR1 WT; not shown: FLAG tag at the C-terminus
binds: all assays above
